This passage reports Km results from patent publication US6008019A, “Plasminogen activator from saliva of the vampire bat” (Schering Aktiengesellschaft, priority 1989, dated 1999).

Substrate in series [1]: N=C(N)NCCC[C@H](NC(=O)CNC(=O)[C@@H]1CCC(=O)N1)C(=O)Nc1ccc([N+](=O)[O-])cc1
In words: Km determination of amidolytic chromogenic substrates with t-PA. Type of series: biochemical. The conditions noted are these: other: t-PA, 3 units per hole, 100 mM Tris pH 8.0/100 mM NaCl/0.01% Tween 80, 37° C., Lineweaver-Burk plot. How it is done: (§1) In a 96-hole plate, respectively 90 μl of 100 mM Tris pH 8.0/100 mM NaCl/0.01% "Tween" 80 and 50 μl of the corresponding chromogenic substrate (all from Kabi Vitrum, Stockholm, Sweden) in the final concentrations of 0.03/0.06/0.1/0.3/0.6 and 1 mM are incubated with 10 μl (3 units per hole) of the corresponding plasminogen activator at 37° C., and the thus-released p-nitroaniline is determined photometrically at 405 nm at various points in time between 0-7 hours. The resultant data are evaluated with the aid of a Lineweaver-Burk plot, and the Km value is determined (Segel, I. H., Enzyme Kinetics, John Wiley and Sons, New York). The following chromogenic substrates were utilized:

Substrate in series [2]: CC[C@@H](C)[C@@H](N)C(=O)N1CCC[C@H]1C(=O)N[C@@H](CCCNC(=N)N)C(=O)Nc1ccc([N+](=O)[O-])cc1
In words: Km determination of amidolytic chromogenic substrates with v-PA β. The series is classed as biochemical, Desmodus rotundus. The conditions noted are these: other: v-PA β, 3 units per hole, 100 mM Tris pH 8.0/100 mM NaCl/0.01% Tween 80, 37° C., Lineweaver-Burk plot. How it is done:
as §1

Substrate in series [3]: N=C(N)NCCC[C@H](NC(=O)CNC(=O)[C@@H]1CCC(=O)N1)C(=O)Nc1ccc([N+](=O)[O-])cc1
The series is described as above. The series is classed as biochemical, Desmodus rotundus. The conditions noted are these: other: v-PA β, 3 units per hole, 100 mM Tris pH 8.0/100 mM NaCl/0.01% Tween 80, 37° C., Lineweaver-Burk plot. How it is done: as §1

Substrate in series [4]: CC[C@@H](C)[C@@H](N)C(=O)N1CCC[C@H]1C(=O)N[C@@H](CCCNC(=N)N)C(=O)Nc1ccc([N+](=O)[O-])cc1
In words: Km determination of amidolytic chromogenic substrates with v-PA α1. Type of series: biochemical, Desmodus rotundus. The conditions noted are these: other: v-PA α1, 3 units per hole, 100 mM Tris pH 8.0/100 mM NaCl/0.01% Tween 80, 37° C., Lineweaver-Burk plot. How it is done:
as §1

Substrate in series [5]: N=C(N)NCCC[C@H](NC(=O)CNC(=O)[C@@H]1CCC(=O)N1)C(=O)Nc1ccc([N+](=O)[O-])cc1
The description is as above. The conditions noted are these: other: v-PA α1, 3 units per hole, 100 mM Tris pH 8.0/100 mM NaCl/0.01% Tween 80, 37° C., Lineweaver-Burk plot. Type of series: biochemical, Desmodus rotundus. How it is done: as §1

B1: t-PA (tissue-type plasminogen activator) (Homo sapiens) (protein)
chain: SYQVICRDEKTQMIYQQHQSWLRPVLRSNRVEYCWCNSGRAQCHSVPVKSCSEPRCFNGGTCQQALYFSDFVCQCPEGFAGKCCEIDTRATCYEDQGISYRGTWSTAESGAECTNWNSSALAQKPYSGRRPDAIRLGLGNHNYCRNPDRDSKPWCYVFKAGKYSSEFCSTPACSEGNSDCYFGNGSAYRGTHSLTESGASCLPWNSMILIGKVYTAQNPSAQALGLGKHNYCRNPDGDAKPWCHVLKNRRLTWEYCDVPSCSTCGLRQYSQPQFRIKGGLFADIASHPWQAAIFAKHRRSPGERFLCGGILISSCWILSAAHCFQERFPPHHLTVILGRTYRVVPGEEEQKFEVEKYIVHKEFDDDTYDNDIALLQLKSDSSRCAQESSVVRTVCLPPADLQLPDWTECELSGYGKHEALSPFYSERLKEAHVRLYPSSRCTSQHLLNRTVTDNMLCAGDTRSGGPQANLHDACQGDSGGPLVCLNDGRMTLVGIISWGLGCGQKDVPGVYTKVTNYLDWIRDNMRP
For B1, the Km in series [1] turned out to be 2000 µM.

B2: Desmodus rotundus saliva plasminogen activator v-PA β (Desmodus rotundus) (protein)
chain: AYGGCSELRCFNGGTCWQAASFSDFVCQCPKGYTGKQCEVDTHATCYKDQGVTYRGTWSTSESGAQCINWNSNLLTRRTYNGRRSDAITLGLGNHNYCRNPDNNSKPWCYVIKASKFILEFCSVPVCSKATCGLRKYKEPQLHSTGGLFTDITSHPWQAAIFAQNRRSSGERFLCGGILISSCWVLTAAHCFQERYPPQHLRVVLGRTYRVKPGKEEQTFEVEKCIIHEEFDDDTYNNDIALLQLKSGSPQCAQESDSVRAICLPEANLQLPDWTECELSGYGKHKSSSPFYSEQLKEGHVRLYPSSRCTSKFLFNKTVTNNMLCAGDTRSGEIYPNVHDACQGDSGGPLVCMNDNHMTLLGIISWGVGCGEKDIPGVYTKVTNYLGWIRDNMRP
notes: from tissue
In the case of B2, the Km in series [2] and in series [3] was 2000 µM in each case.

B3: Desmodus rotundus saliva plasminogen activator v-PA α1 (Desmodus rotundus) (protein)
chain: AYGVACKDEITQMTYRRQESWLRPEVRSKRVEHCQCDRGQARCHTVPVNSCSEPRCFNGGTCWQAVYFSDFVCQCPAGYTGKRCEVDTRATCYEGQGVTYRGTWSTAESRVECINWNSSLLTRRTYNGRMPDAFNLGLGNHNYCRNPNGAPKPWCYVIKAGKFTSESCSVPVCSKATCGLRKYKEPQLHSTGGLFTDITSHPWQAAIFAQNRRSSGERFLCGGILISSCWVLTAAHCFQESYLPDQLKVVLGRTYRVKPGEEEQTFKVKKYIVHKEFDDDTYNNDIALLQLKSDSPQCAQESDSVRAICLPEANLQLPDWTECELSGYGKHKSSSPFYSEQLKEGHVRLYPSSRCAPKFLFNKTVTNNMLCAGDTRSGEIYPNVHDACQGDSGGPLVCMNDNHMTLLGIISWGVGCGEKDVPGVYTKVTNYLGWIRDNMHL
notes: from tissue
With B3, the Km in series [4] came out at 1000 µM; in series [5], 2000 µM.
